{
  "source": "paper doi:10.1101/2020.12.15.408237",
  "target": "Staphylococcus aureus FrmB (Staphylococcus aureus Newman)",
  "assay": "SEC",
  "data": [
    {"substance": "Staphylococcus aureus FrmB (enzyme)", "values": [
      {"measurement": "stoichiometry N", "value": 2}
    ]}
  ]
}
